Test [1] deals with T1, HAUSP (Homo sapiens, UniProt Q93009). As to the kind of experiment: In vitro deubiquitination. In kind it is biochemical. Particulars: immunopurified Flag-HAUSP complexes, K48-linked 3–7 polyubiquitin chains.
The subject of test [2] is p53. As to the kind of experiment: p53 ubiquitination on vIRF4 expression. In kind it is cell-based.
The target of test [3] is HAUSP TRAF domain (HAUSP^62–205) (Homo sapiens, UniProt Q93009). It counts as binding. The settings on record: ITC.
HAUSP TRAF domain (HAUSP^62–205), sequence (Q93009 62-205): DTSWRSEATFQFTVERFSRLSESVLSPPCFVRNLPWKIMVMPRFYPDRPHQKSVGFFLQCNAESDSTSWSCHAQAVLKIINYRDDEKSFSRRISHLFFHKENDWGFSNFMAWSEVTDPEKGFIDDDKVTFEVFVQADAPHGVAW
Test [4] concerns the target T1, HAUSP. As to the kind of experiment: Co-IP / GST pull-down of HAUSP. In kind it is binding. Particulars: transfected 293T cells.

Entries after “also recorded” stand apart in the source; their conditions may differ.

T1 sequence (Q93009 whole entry): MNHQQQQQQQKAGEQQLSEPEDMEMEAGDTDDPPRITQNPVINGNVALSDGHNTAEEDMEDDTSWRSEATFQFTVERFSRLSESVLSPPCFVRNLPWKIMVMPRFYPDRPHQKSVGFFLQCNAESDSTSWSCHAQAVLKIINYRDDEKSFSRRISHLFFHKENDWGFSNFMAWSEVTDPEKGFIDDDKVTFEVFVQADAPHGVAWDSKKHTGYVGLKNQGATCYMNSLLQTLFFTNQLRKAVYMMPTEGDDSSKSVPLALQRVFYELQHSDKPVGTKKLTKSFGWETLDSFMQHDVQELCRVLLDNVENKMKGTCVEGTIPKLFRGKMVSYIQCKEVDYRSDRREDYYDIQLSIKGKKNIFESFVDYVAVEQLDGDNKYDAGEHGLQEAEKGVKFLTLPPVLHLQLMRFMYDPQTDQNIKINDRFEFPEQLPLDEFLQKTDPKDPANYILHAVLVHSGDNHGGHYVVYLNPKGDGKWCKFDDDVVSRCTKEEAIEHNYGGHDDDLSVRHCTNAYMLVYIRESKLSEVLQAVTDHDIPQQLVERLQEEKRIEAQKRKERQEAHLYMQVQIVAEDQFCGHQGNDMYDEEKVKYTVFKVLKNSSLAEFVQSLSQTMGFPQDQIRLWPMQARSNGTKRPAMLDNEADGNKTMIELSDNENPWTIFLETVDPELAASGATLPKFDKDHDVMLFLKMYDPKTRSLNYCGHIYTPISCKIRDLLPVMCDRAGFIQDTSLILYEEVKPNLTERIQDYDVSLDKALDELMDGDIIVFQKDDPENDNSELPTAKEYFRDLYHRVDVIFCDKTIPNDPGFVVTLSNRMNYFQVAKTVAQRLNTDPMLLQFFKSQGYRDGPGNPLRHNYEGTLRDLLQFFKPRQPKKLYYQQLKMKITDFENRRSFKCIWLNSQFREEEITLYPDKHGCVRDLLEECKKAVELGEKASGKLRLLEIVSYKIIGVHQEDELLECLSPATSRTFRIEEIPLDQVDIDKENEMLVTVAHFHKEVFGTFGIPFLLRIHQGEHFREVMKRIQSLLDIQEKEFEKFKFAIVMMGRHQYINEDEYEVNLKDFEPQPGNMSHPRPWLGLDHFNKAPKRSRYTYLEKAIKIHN

B1: vIRF4: KSHV viral interferon regulatory factor 4 (protein)
chain: MPKAGGSEWATLWIIDALENNKFPYFSWFDRNNLLFAAPAPLPAGSDIPPGWYSVYHAFDEECDRVYGPSPVVGQTVYGRFGRLLRGTRRAVVRNDLRYSDTFGGSYVVWQLVRTPFKNCTYCYGAAYGPEKLQRFIQCLLSPPMQTTATRRSDTREQSYEEAGAAAPAPPKAPSGLRGRPRKSNRYYNVGDITTEQKAACSVWIPVNEGASTSGMGSSGTRQVTQASSFTWRVPGDPPAPSTLTGPSDPHSSGAGLPGTAPPKPQHETRLAGTVSGVSGVAQTPGDTGQLAPPMRDGSRLPSTSPWIPACFPWGDLPVTGWWPQGASGLPEKVHPPTTGQFDPLSPRWTYTGIPSSQLNPAAPSWIPPHAQAGTFVGEFSQGAPLAPQGLLPQSGQCASAWLPRRETGAEGACGASTEGRAPQGAASERVYPFEPQPPSAPAPGYAKPSCYNWSPLAEPPATRPIRAPVWHPPVGHAVVPEVRTPLWIPWSSGGAPNQGLSHTQGGASATPSAGAPPTPEVAERQEPSSSGIPYVCQGDNMATGYRRVTTSSGALEVEIIDLTGDSDTPSTTVASTPLPVSGPRVFQPTVLYSAPEPAVNPEVSHLPTELERRECVCPGSGERPRVPLVSTYAGDRYAVGGYGPEQSLVPPPLGLPLTLSNLQGEDICTWEEGLGNILSELQEEPSSSTRQATDRRRPRSRSPHGRRTPVSHSGPEKPPSKMFFDPPDSQRVSFVVEIFVYGNLRGTLRREGDAGEAMLCSWPVGDTLGHLCQSFVPELLRIPRLTVPSPEQMEILNRVFEGLGHGFPIFCSMSGIYSRNATQVEGWWFGNPNSRYERILRSFSPRVPQQLFNTARYLATTAAIPQTPLSVNPVTCGTVFFGASPASTENFQNVPLTVKIFIGSIWDSLH
modifications: left off: V5, end not stated, kept
As to B1, the “HAUSP DUB activity” value in test [1] is “effectively suppressed HAUSP DUB activity in a binding-dependent manner”. Moreover, the p53 ubiquitination result in test [2] is given as “markedly induced p53 ubiquitination”.

B2: vIRF4^153–256/Δ202–216/Δ237–256: vIRF4^153–256 with residues 202–216 and 237–256 deleted (protein)
chain: SDTREQSYEEAGAAAPAPPKAPSGLRGRPRKSNRYYNVGDITTEQKAACGSSGTRQVTQASSFTWRVPG
Consider B2, for which, in test [3], the “TRAF binding affinity, in words” value is reported as “had no further effect”.

B3: vIRF4^153–256/Δ202–216: vIRF4^153–256 with residues 202–216 deleted (protein)
chain: SDTREQSYEEAGAAAPAPPKAPSGLRGRPRKSNRYYNVGDITTEQKAACGSSGTRQVTQASSFTWRVPGDPPAPSTLTGPSDPHSSGAG
For the molecule B3, the “TRAF binding affinity, in words” value in test [3] is “significant reduction of TRAF binding affinity”.

B4: vIRF4^153–256: central region fragment of vIRF4, residues 153–256 (protein)
chain: SDTREQSYEEAGAAAPAPPKAPSGLRGRPRKSNRYYNVGDITTEQKAACSVWIPVNEGASTSGMGSSGTRQVTQASSFTWRVPGDPPAPSTLTGPSDPHSSGAG
Take B4: in test [3] (compared with vIRF4^153–216 / vIRF4^202–216), the “fold higher TRAF affinity (C-terminally extended)” value worked out at 7 fold. Further, the “interaction with HAUSP” value in test [4] is on record as “specifically interacts with; also recorded: sufficient to bind to HAUSP”.
